Values quoted from earlier work, collected in article PMC4520744.

Target: HBV capsid protein (Hepatitis B virus) (UniProt P03149)

In the case of “HBV capsid protein (from UniProt P03149)”, the Kd is given as 3000 µM.
